Experiment [1] deals with T1, recombinant human macrophage migration inhibitory factor (MIF) (human, UniProt P14174 2-115, biotinylated (Amersham ECL Protein Biotinylation kit; sites not stated)).
T1 construct: also called human MIF; biotinylated MIF
The experiment in a line: ELISA; lower end of the group's range, tied to C on MIF by Table 2. On the procedure: (§1) For further characterization, the EC₅₀ concentration for each of the cross-reactive antibodies to MIF and to D-DT was determined based on the ELISA setting according to Example 1. Concentrations of each of the individual antibodies were titrated and 8 distinct concentrations from 0 nM to 166 nM were applied side by side on a plate coated with MIF and a plate coated with D-DT. Biotinylated recombinant human MIF or D-DT with a concentration of 1 μg/ml were coated on reacti-bind neutravidin coated black 384-well plates (Thermo Scientifc) for 1, 5 h at room temperature. Reacti-bind neutravidin plates had been pretreated with PBS/5% skim milk powder before. After washing with PBST purified IgGs were added to the MIF or D-DT coated plate respectively and incubated for 2 hours at room temperature. After subsequent washing antigen-specific bound IgG was detected via AP-Goat-anti-human IgG Fc-γ fragment specific (Fa Jackson ImmunoResearch) secondary antibody and application of Attophos (Fa ROCHE) according to the manufacturer's manual. Fluorescence intensity was measured via Tecan Reader GeniosPro and fluorescence intensity for the individual clones was plotted in a typical antibody titration curve. EC₅₀ values were determined with the program GraphPad Prism using non-linear regression analysis.

For experiment [2], the target named is T2, recombinant human D-dopachrome tautomerase (D-DT) (human, UniProt P30046 2-118, biotinylated (Amersham ECL Protein Biotinylation kit; sites not stated)).
T2 construct: Used biotinylated on neutravidin plates; also called human D-DT
T2 sequence (P30046 2-118 limits assumed): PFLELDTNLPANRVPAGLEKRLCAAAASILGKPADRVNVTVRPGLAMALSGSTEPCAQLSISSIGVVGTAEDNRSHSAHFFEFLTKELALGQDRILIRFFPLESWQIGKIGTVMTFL
The experiment in a line: ELISA, antibody at 6.25 nM on recombinant D-DT (FIG. 2). The method, then: (§2) Cross-reactivity of antibodies to human MIF and human D-DT was determined by ELISA. Biotinylated recombinant human MIF or D-DT with a concentration of 1 μg/ml were coated on reacti-bind neutravidin coated black 384-well plates (Thermo Scientifc) for 1, 5 h at room temperature. Reacti-bind neutravidin plates had been pretreated with PBS/5% skim milk powder before. After washing with PBST purified IgGs were applied in a concentration of 6.25 nM on a MIF or a D-DT coated plate respectively and incubated for 2 hours at room temperature. After subsequent washing antigen-specific bound IgG was detected via AP-Goat-anti-human IgG Fc-γ fragment specific (Fa Jackson ImmunoResearch) secondary antibody and application of Attophos (Fa ROCHE) according to the manufacturer's manual. Fluorescence intensity was measured via Tecan Reader GeniosPro and fluorescence intensity for the individual clones was compared to control antibody.

Experiment [3] concerns the target T1, recombinant human macrophage migration …. The experiment in a line: ELISA, IgG at 6.25 nM on biotinylated human MIF on neutravidin plate. The method, then:
as §2

Experiment [4] has the same target. Kind of experiment: ELISA, IgG titrated (0-166 nM) on biotinylated human MIF on neutravidin plate. The method, then:
as §1

In experiment [5] the target is T2, recombinant human D-dopachrome …. The experiment in a line: ELISA, IgG titrated (0-166 nM) on biotinylated human D-DT on neutravidin plate. On the procedure:
as §1

Experiment [6] shares this target. The experiment in a line: ELISA, IgG at 6.25 nM on biotinylated human D-DT on neutravidin plate. On the procedure:
as §2

For experiment [7], the target named is T1, recombinant human macrophage migration …. Kind of experiment: ELISA, antibody at 6.25 nM on recombinant MIF (FIG. 2). The method, then:
as §2

Experiment [8] deals with T2, recombinant human D-dopachrome …. Kind of experiment: ELISA; upper end of the group's range, tied to A on D-DT by Table 2. The method, then: as §1

T1 sequence (P14174 2-115 limits assumed): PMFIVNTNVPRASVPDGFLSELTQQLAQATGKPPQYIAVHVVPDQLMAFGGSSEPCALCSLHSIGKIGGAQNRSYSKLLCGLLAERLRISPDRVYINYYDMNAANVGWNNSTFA

B1: MOR014138 (antibody, V domains shown)
VH: QVQLVQSGAEVKKPGSSVKVSCKASGGTFTSYAIHWVRQAPGQGLEWMGRIIPHFGTAYYAQKFQGRVTITADESTSTAYMELSSLRSEDTAVYYCARVQVYMSVLGWGYENYMDVWGQGTLVTVSS
VL: DIVLTQSPATLSLSPGERATLSCRASQSVSAFQLGWYQQKPGQAPRLLIYGASTRATGIPARFSGSGSGTDFTLTISSLEPEDFAVYYCQQYIQYPYTFGQGTKVEIKR
notes: also called antibody C
As for B1, the half-maximal effective concentration (EC50) was 0.3 nM in experiment [1], 0.36 nM in experiment [4] and 2.29 nM in experiment [5]. For the same molecule, the “fold fluorescence intensity above background” value in experiment [2] and in experiment [7] was more than 5 fold in each case. The “fold signal intensity compared to the negative control” value (“fold signal intensity” below) in experiment [3] and in experiment [6] was not below 5 fold throughout.

B2: MOR014116 (antibody, V domains shown)
VH: QVQLVQSGAEVKKPGSSVKVSCKASGGTFSDYAISWVRQAPGQGLEWMGLIIPLFGTANYAQKFQGRVTITADESTSTAYMELSSLRSEDTAVYYCARSPAYQLVTPYYYVSDWFDVWGQGTLVTVSS
VL: DIVLTQPPSVSGAPGQRVTISCSGSSSNIGSNYVSWYQQLPGTAPKLLIYDNSERPSGVPDRFSGSKSGTSASLAITGLQAEDEADYYCQSWDASPWSYVFGGGTKLTVLG
notes: also called antibody B
In the case of B2, the “fold fluorescence intensity above background” value in experiment [2] and in experiment [7] was more than 5 fold each time. The “fold signal intensity” value in experiment [3] and in experiment [6] was not below 5 fold throughout. Besides, the EC50 in experiment [4] was determined as 0.486 nM; in experiment [5], 8.47 nM.

B3: MOR014093 (antibody, V domains shown)
VH: QVQLLESGGGLVQPGGSLRLSCAASGFTFSDYYMDWVRQAPGKGLEWVSAISSSGSTTYYADSVKGRFTISRDNSKNTLYLQMNSLRAEDTAVYYCARGNLFGSTYVMGFDHWGQGTLVTVSS
VL: DIELTQPPSVSVSPGQTASITCSGDSIGSTHVSWYQQKPGQAPVLVIYRKSNRPSGIPERFSGSNSGNTATLTISGTQAEDEADYYCSSWDSESVVFGGGTKLTVLG
notes: also called antibody A
With B3, the EC50 was 22 nM in experiment [8], 1.14 nM in experiment [4] and 21.2 nM in experiment [5]. In addition, the “fold fluorescence intensity above background” value in experiment [2] and in experiment [7] was more than 5 fold in each case. Further, the “fold signal intensity” value in experiment [3] and in experiment [6] was not below 5 fold each time.

These data come from patent US20140120115A1 (MorphoSys, published 2014).
